Test results taken from US6156551.
Where no end group is shown, it is not given here. [ ]: non-standard residue; d: D form. pY = N[C@@H](Cc1ccc(OP(=O)(O)O)cc1)C(=O)O

Tests used:
[1] = target: [^32 P]reduced carboxyamidomethylated and maleylated-lysozyme (Gallus gallus (Chicken)) (UniProt P00698)
[2] = target: reduced carboxyamidomethylated and maleylated-lysozyme (not phosphorylated) (Gallus gallus (Chicken)) (UniProt P00698)
[3] = target: T1, D61A activated mutant of SHP-2 (human)
T1 sequence: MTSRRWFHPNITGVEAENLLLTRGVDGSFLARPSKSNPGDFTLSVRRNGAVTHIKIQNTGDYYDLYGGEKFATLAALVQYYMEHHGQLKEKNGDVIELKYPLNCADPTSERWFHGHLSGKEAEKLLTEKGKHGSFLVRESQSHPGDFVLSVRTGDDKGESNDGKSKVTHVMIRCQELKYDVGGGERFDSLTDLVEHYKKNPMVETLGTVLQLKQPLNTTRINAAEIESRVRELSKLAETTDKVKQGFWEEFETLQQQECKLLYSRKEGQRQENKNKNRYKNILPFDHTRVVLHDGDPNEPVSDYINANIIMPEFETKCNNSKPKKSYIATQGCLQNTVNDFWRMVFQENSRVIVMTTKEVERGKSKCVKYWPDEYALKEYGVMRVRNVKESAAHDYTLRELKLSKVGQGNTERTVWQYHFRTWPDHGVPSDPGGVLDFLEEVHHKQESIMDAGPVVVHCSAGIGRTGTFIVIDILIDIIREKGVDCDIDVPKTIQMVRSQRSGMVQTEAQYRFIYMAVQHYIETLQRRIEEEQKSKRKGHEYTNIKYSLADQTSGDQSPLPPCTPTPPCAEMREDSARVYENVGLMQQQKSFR

With E76A activated mutant of SHP-2 (enzyme) as the molecule, how does the phosphatase activity ([32P] phosphate released from [^32 P]RCM-lysozyme) (pmol/min-pmol) [1] read?
Its phosphatase activity ([32P] phosphate released from [^32 P]RCM-lysozyme) (pmol/min-pmol) is 100.

For “recombinant full length Src kinase (enzyme)”, which phosphorylation of RCM-lysozyme with [γ-^32 P] ATP [2] is on record?
The phosphorylation of RCM-lysozyme with [γ-^32 P] ATP was 2000 cpm/pmol.

B1: SHPS-1 phosphotyrosine peptide DIT[pY]…[pY]ASIQTS-NH2 (peptide)
peptide: DIT[pY]ADLNLPKGKKPAPQAAEPNNHTE[pY]ASIQTS-NH2
modifications: N-terminus assumed
SMILES: CC[C@H](C)[C@H](NC(=O)[C@H](CO)NC(=O)[C@H](C)NC(=O)[C@H](Cc1ccc(OP(=O)(O)O)cc1)NC(=O)[C@H](CCC(=O)O)NC(=O)[C@@H](NC(=O)[C@H](Cc1c[nH]cn1)NC(=O)[C@H](CC(N)=O)NC(=O)[C@H](CC(N)=O)NC(=O)[C@@H]1CCCN1C(=O)[C@H](CCC(=O)O)NC(=O)[C@H](C)NC(=O)[C@H](C)NC(=O)[C@H](CCC(N)=O)NC(=O)[C@@H]1CCCN1C(=O)[C@H](C)NC(=O)[C@@H]1CCCN1C(=O)[C@H](CCCCN)NC(=O)[C@H](CCCCN)NC(=O)CNC(=O)[C@H](CCCCN)NC(=O)[C@@H]1CCCN1C(=O)[C@H](CC(C)C)NC(=O)[C@H](CC(N)=O)NC(=O)[C@H](CC(C)C)NC(=O)[C@H](CC(=O)O)NC(=O)[C@H](C)NC(=O)[C@H](Cc1ccc(OP(=O)(O)O)cc1)NC(=O)[C@@H](NC(=O)[C@@H](NC(=O)[C@@H](N)CC(=O)O)[C@@H](C)CC)[C@@H](C)O)[C@@H](C)O)C(=O)N[C@@H](CCC(N)=O)C(=O)N[C@H](C(=O)N[C@@H](CO)C(N)=O)[C@@H](C)O
B1 was tested. Which activation of phosphatase activity on [^32 P]RCM-lysozyme by the phosphotyrosine peptide (fold higher than wildtype SHP-2) [3] did it give?
The activation of phosphatase activity on [^32 P]RCM-lysozyme by the phosphotyrosine peptide (fold higher than wildtype SHP-2) was 5.
